The text below walks through data of US20220185894A1.

pEC50: −log10 of the molar value.

The pEC50 is the EC50 on a negative log10 scale, so that one unit is a factor of ten. A high value points to a small EC50.

The target of assay [1] is human FcγRIIa (R&D Systems, 1330-CD) (human) (UniProt P12318). Put plainly: SPR, BIAcore 3000; FcγR immobilised, 500 µg/ml injected. (In SPR one partner is held on a chip, and binding of the other changes the refractive index at the surface.)
Assay [2] deals with mouse LAG-3 expressed on cells (mouse) (UniProt Q61790). Put plainly: flow cytometry on HEK cells expressing murine LAG-3. A general note: A flow cytometer gives signals particle by particle.
Sequence of mouse LAG-3 expressed on cells (mouse) (Q61790 24-521 limits assumed): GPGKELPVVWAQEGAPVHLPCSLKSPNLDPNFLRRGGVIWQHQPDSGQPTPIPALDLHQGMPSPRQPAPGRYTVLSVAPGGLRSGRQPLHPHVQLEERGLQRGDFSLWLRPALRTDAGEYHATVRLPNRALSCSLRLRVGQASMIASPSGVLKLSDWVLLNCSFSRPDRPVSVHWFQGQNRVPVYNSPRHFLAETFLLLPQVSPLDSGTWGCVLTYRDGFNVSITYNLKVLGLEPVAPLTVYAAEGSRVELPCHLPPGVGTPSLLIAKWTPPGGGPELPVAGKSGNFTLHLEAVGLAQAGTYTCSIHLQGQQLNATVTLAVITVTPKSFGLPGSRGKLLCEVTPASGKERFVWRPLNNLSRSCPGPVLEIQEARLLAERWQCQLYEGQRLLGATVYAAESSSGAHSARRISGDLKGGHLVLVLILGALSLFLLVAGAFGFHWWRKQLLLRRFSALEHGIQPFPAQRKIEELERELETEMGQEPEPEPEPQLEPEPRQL
The target is the same in assay [3]. Put plainly: flow cytometry on HEK cells expressing mouse LAG-3.
The target in assay [4] is CD20 endogenously expressed on Raji cells (UniProt P11836). Put plainly: cell-based or functional assay.
Sequence of CD20 endogenously expressed on Raji cells (P11836 whole entry): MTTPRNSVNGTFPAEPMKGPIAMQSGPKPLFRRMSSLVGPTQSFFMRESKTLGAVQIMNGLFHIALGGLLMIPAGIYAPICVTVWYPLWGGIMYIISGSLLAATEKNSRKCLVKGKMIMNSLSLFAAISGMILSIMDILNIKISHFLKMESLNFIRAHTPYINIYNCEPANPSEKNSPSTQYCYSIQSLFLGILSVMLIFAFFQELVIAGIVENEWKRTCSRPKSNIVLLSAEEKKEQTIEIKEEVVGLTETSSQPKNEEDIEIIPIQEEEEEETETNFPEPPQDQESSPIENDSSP
In assay [5] the target is human FcγRI (R&D Systems, 1257-FC) (human) (UniProt P12314). In words: SPR, Biacore T200; FcγR immobilised, 200 µg/ml injected.
Sequence of human FcγRI (R&D Systems, 1257-FC) (human) (P12314 16-288 limits assumed): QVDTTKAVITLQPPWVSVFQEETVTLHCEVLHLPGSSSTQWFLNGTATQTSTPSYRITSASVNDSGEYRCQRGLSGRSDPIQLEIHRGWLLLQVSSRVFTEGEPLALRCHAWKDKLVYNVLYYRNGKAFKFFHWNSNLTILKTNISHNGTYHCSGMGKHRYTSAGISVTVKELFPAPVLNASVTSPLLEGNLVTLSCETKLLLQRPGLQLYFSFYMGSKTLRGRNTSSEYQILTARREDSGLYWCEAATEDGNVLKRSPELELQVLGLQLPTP
Assay [6] addresses human FcγRIIIa (R&D Systems, 4325-FC) (human) (UniProt P08637). The assay is described as above.
The target in assay [7] is human FcγRIIb/c (R&D Systems, 1875-CD) (human) (UniProt P31994). Put plainly: SPR, Biacore T200; FcγR immobilised, 500 µg/ml injected.
Sequence of human FcγRIIb/c (R&D Systems, 1875-CD) (human) (P31994 46-217 limits assumed): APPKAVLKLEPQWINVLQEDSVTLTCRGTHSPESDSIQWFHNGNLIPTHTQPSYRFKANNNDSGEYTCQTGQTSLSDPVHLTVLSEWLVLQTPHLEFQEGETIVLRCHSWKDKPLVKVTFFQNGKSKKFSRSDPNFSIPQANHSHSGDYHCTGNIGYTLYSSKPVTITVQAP
Assay [8] concerns the target human FcγRIIa (R&D Systems, 1330-CD) (human) (UniProt P12318). Described as above.
In assay [9] the target is human FcγRI (R&D Systems, 1257-FC) (human) (UniProt P12314). Put plainly: SPR, BIAcore 3000; FcγR immobilised, 100 µg/ml injected.
The target of assay [10] is human FcγRIIb/c (R&D Systems, 1875-CD) (human) (UniProt P31994). In words: SPR, BIAcore 3000; FcγR immobilised, 500 µg/ml injected.

Sequence of human FcγRIIa (R&D Systems, 1330-CD) (human) (P12318 36-218 limits assumed): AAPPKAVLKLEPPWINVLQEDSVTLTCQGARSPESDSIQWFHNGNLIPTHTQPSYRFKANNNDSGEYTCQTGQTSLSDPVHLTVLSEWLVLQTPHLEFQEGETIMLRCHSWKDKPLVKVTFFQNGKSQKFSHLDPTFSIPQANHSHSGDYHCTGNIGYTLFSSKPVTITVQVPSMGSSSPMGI
Sequence of human FcγRIIIa (R&D Systems, 4325-FC) (human) (P08637 17-208 limits assumed): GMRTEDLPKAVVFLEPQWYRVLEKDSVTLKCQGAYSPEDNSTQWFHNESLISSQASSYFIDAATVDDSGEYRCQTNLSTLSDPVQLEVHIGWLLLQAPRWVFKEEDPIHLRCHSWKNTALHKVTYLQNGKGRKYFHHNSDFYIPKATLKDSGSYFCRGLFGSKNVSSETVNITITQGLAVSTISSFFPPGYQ

In assay [1], mouse IgG1 (Sigma, P5305) (antibody) had a binding response at end of association (RU) of 7 RU.

The substance “benchmark anti-mouse LAG-3 mAb C9B7W (2B Scientific, BE0174-50MG) (antibody)” gave a pEC50 in assay [2] of 7.57. In assay [3], this substance had a pEC50 of 7.10 and a fold poorer affinity (EC50) than the Fcabs of 17 fold.

Consider “anti-CD20 antibody Rituximab (generic version, IgG1 format)”, for which, in [4], the ADCC, LDH release, maximum lysis of LAG-3 expressing Raji cells came to 40%; the ADCC, LDH release, maximum lysis of PD-L1 expressing Raji cells is 40%; the CDC, LDH release, maximum lysis of PD-L1 expressing Raji cells is under 60%.

Take “monoclonal IgG2 isotype mAb to an irrelevant target (antibody)”: the binding response at end of association (RU) in [5] is 0 RU; in assay [6], 1.9 RU; in [1], 9 RU; in assay [7], 7.4 RU; in [8], 9.7 RU.

As for “monoclonal IgG4 isotype mAb to an irrelevant target (antibody)”, the binding response at end of association (RU) in assay [9] came to 8 RU; in assay [5], 9 RU; in assay [6] it was 3.1 RU; in assay [10], 9 RU; in assay [1] it was 8 RU; in assay [7] it was 15.1 RU. Moreover, the binding response at end of association (RU) in assay [8] is 4.3 RU.
